For one series, the system named is liver cells. Put plainly: Histopathological observation on liver cells (H&E) in CCl4-induced acute liver injury. It is filed as in vivo, mice. Conditions: for necrosis in liver cells: 100 mg/kg oral one day before CCl4 0.4 ml/kg i.p., autopsy 24 hours after CCl4. An excerpt: In the present invention, male wild type C57BL/6(WT) at 12 weeks and SMP30 knock-out C57BL/6(KO) mice were used to induce liver injury by CCl4 and then the relation of SMP30 with arazyme was investigated. 10 male and 20 female SMP30 knock-out C57BL/6 mice were distributed from Tokyo Metropolitan Institute of Gerontology, which were then raised in the animal laboratory at Department of Pathology, College of Veterinary Medicine, Kyungpook National University, Korea. Among F1 mice generated by breeding, knock-out mice were selected by tail DNA genotyping by PCR.
Wild type mice were quarantined and adapted for 7 days in the animal laboratory. During the adaptation, every symptom was checked and only healthy animals were selected. Both wild type and SMP30 knock-out mice were 12 weeks old, excluding the difference in age.
Rats were adapted and raised in an animal facility where temperature was regulated to 22±3° C., humidity was adjusted to 55±10% and light was also regulated to 12L/12D (08:00 lights on, 20:00 lights out). The environmental conditions were checked regularly (every three months). After environmental evaluation, no changes in important conditions were recognized. During the whole experiment period, rats were raised in polycarbonate cages [240 W×390 L×175 H (mm)] by up to 5 per cage. Skin mark using an oil magic pen and individual identification card were used for distinguishment. Feed for laboratory animals (PMI Nutrition International, 505 North 4th Street Richmond, in 47374, USA) was provided at any time after being sterilized by irradiation (13.2 kGy). Tap water was provided using a water bottle at any time after being purified by a carbon filter. Carbon tetrachloride was diluted in olive oil at the concentration of 0.4 ml/kg and administered to […] once to induce liver injury. 24 hours after the administration, autopsy was performed.
Wild type mice and SMP30 knock-out mice were divided, by 5 of each, into negative control groups (G1, G5), positive control groups (G2, G6), two of experimental group 1 (G3, G7) and two of experimental group 2 (G4, G8) (Table 1). Intraperitoneal administration of olive oil was performed once to negative control mice (G1, G5), while intraperitoneal administration of CCl4 (0.4 ml/kg) was performed once to positive control mice (G2, G6). In the meantime, 100 mg/kg of vitamin C dissolved in tap water was orally administered to experimental group 1 mice (G3, G7) one day before the intraperitoneal administration of CCl4 (0.4 ml/kg). 100 mg/kg of arazyme dissolved in tap water was orally administered to experimental group 2 mice (G4, G8) one day before the intraperitoneal administration of CCl4 (0.4 ml/kg). […]

Series [1] has as its system SMP30. Put plainly: Immunohistochemical observation of SMP30 in liver cells. The series is classed as in vivo. Conditions: wild type mice, 100 mg/kg oral before CCl4, compared with CCl4 alone. Here is the method: (§1) Wild type mice and SMP30 knock-out mice were divided, by 5 of each, into negative control groups (G1, G5), positive control groups (G2, G6), two of experimental group 1 (G3, G7) and two of experimental group 2 (G4, G8) (Table 1). Intraperitoneal administration of olive oil was performed once to negative control mice (G1, G5), while intraperitoneal administration of CCl4 (0.4 ml/kg) was performed once to positive control mice (G2, G6). In the meantime, 100 mg/kg of vitamin C dissolved in tap water was orally administered to experimental group 1 mice (G3, G7) one day before the intraperitoneal administration of CCl4 (0.4 ml/kg). 100 mg/kg of arazyme dissolved in tap water was orally administered to experimental group 2 mice (G4, G8) one day before the intraperitoneal administration of CCl4 (0.4 ml/kg). 24 hours after the administration of CCl4, autopsy was performed in every mouse and samples were taken from each mouse for histopathological test.
To observe SMP30 in liver cells immunohistochemically, paraffin embedded tissues fixed with formalin were cut into 4 μm thick sections, followed by deparaffinization. To inhibit the activity of endogenous peroxidase, the sections were treated in 3% H2O2 for 30 minutes and washed with 0.01 M PBS. To increase antigen expression of the tissues, the sections were treated with 0.01 M citrate buffer, followed by heat treatment using microwave. […]

Series [2] deals with SMP30. Put plainly: Expression of SMP30 in liver cells by immunoblotting. The conditions noted are these: wild type mice; 100 mg/kg oral before CCl4; compared with CCl4 only (G2). The series is classed as in vivo. How it is done: as §1
(§2) The expression of SMP30 in liver cells was investigated by immunoblotting. First, the liver tissues frozen at −70° C. were homogenized in RIPA buffer containing 0.1 mM sodium orthovandate (Na3VO4) and protease inhibitor cocktail tablet (Roche, Mannheim, Germany). […] Protein concentration was measured by Bradford method and each protein sample proceeded onto 10% SDS-polyacrylamide gel at the concentration of 80 µg/well, followed by electrophoresis. […]
On the technique in general: A western blot detects proteins with antibodies after separation by electrophoresis.

In series [3] the test system is P-smad3. The experiment in a line: Immunohistochemical observation of P-smad3 expression in liver cells. The series is classed as in vivo, mice. The conditions noted are these: for P-smad3 immune response (immunohistochemistry): 100 mg/kg oral before CCl4, 100 mg/kg.
Series [4] has as its system P-smad3. Put plainly: Expression of P-smad3 in liver cells by immunoblotting. It is filed as in vivo. Conditions: SMP30 knock-out mice; compared with CCl4 alone (G6). Here is the method: as §1, §2
For another series, the system named is rats. Put plainly: Acute toxicity test of arazyme, single oral administration. The series is classed as in vivo, Wistar rats. Conditions: female rats, oral 1250, 2500 and 5000 mg/kg once. Here is the method:
The following experiments were performed to see if arazyme has acute toxicity in rats.
9-week old SPF (specific pathogen-free) Wistar line rats (Orient, Co., Seoul, Korea) were raised in an animal facility (4 groups, 4 rats per group) where temperature was regulated to 22±3° C., humidity was adjusted to 55±10% and light was also regulated to 12L/12D. The rats were quarantined and adapted for one week before being used. During the whole experiment period, the rats were raised in polycarbonate cages [240 W×390 L×175 H (mm)] by up to 5 per cage. Skin mark using an oil magic pen and individual identification card were used for distinguishment. Feed for laboratory animals (PMI Nutrition International, USA) was provided at any time after being sterilized. Tap water was provided using a water bottle at any time after being purified by a carbon filter.
Arazyme of the invention was dissolved in distilled water for injection at the concentrations of 0, 1250, 2500 and 5000 mg/kg, and 10 ml/kg of each arazyme solution was orally administered once to rats using zonde. After one week-adaptation, the rats were divided into four groups. Different concentrations of arazyme were administered to rats at 10 weeks, and general symptoms were checked. To evaluate toxicity of arazyme to organs, autopsy was performed 24 hours after the administration.
After oral-administration of arazyme to female rats, any symptom according to the administration was investigated and behavior, appearance and biological functions of rats were also observed to evaluate toxicity.

[5] abbreviates: autopsy 24 hours after administration.

“Also recorded” adds a separate entry of the source.

B1: arazyme: novel protease produced by Aranicola proteolyticus HY-3 (KCTC 0268BP); 51.5 kDa monomer; polypeptide sequence SEQ ID NO: 1 (protein, listed as Aranicola proteolyticus)
chain: MQSTKKAIEITESSLAAASSAYNAVDDLLHYHERGNGIQVNGKDSFSTEQAGLFITRENQTWNGYKVFGQPVKLTFSFPDYKFSSTNVAGDTGLSKFSAEQQQQAKLSLQSWSDVANITFTEVGAGQKANITFGNYSQDRPGHYDYDTQAYAFLPNTIYQGQNLGGQTWYNVNQSNVKHPASEDYGRQTFTHEIGHALGLSHPGDYNAGEGNPTYRDASYAEDTREFSLMSYWSETNTGGDNGGHYAAAPLLDDISAIQHLYGANQTTRTGDTVYGFNSNTGRDFLSTTSNPQKVIFAAWDAGGNDTFDFSGYTANQRINLNEKSFSDVGGLKGNVSIAAGVTIENAIGGSGNDVIVGNAANNVLKGGAGNDVLFGGGGADELWGGAGKDTFVFSAVSDSAPGASDWIKDFQKGIDKIDLSFFNQGAQGGDQIHFVDHFSGAAGEALLSYNASNNVSDLALNIGGHQAPDILVKIVGQVDVATDFIV
modifications: BINDING (192)..(192) Zn binding site
Consider B1, for which the “necrosis in liver cells” value with liver cells (SMP30 knock-out C57BL/6 mice) is “significantly inhibited”. The “injury in liver cells around central vein region” value in the series on liver cells (arazyme treated group, CCl4 liver injury) was “only weak injury”. Besides, the “necrosis in liver cells” value in the series on liver cells (wild type C57BL/6 mice) is reported as “significantly inhibited”. Further, the “apoptosis of liver cells, histological observation” value in the series with liver cells (wild type and SMP30 knock-out mice with acute liver injury) is reported as “inhibition of apoptosis of liver cells was observed”. Further, the “SMP30 expression (immunohistochemistry)” value in the series on SMP30 [1] is given as “higher; also recorded: more strongly expressed”. Also, the “SMP30 expression (immunoblotting)” value with SMP30 [2] is recorded as “high”. In addition, the “P-smad3 expression, arazyme groups compared with vitamin C groups” value in the series on P-smad3 [3] (G4, G8 versus G3, G7, wild type and SMP30 knock-out mice) is listed as “lower”. In the series on P-smad3 [3] (SMP30 knock-out mice, G6, G7 compared with G8), the “P-smad3 immune response (immunohistochemistry)” value is “strongly detected in the groups treated with CCl4 alone or together with vitamin C (G6, G7), compared with the group (G8) treated with arazyme”. Further, the “P-smad3 immune response (immunohistochemistry)” value in the series with P-smad3 [3] (wild type mice, compared with CCl4 only (G2)) was “strong immune response against P-smad3 was detected in group 2 (G2) treated with CCl4 only, compared with the groups (G3, G4) treated with vitamin C and arazyme; also recorded: strongly observed in CCl4 treated group (G2), compared with the groups treated with vitamin C and arazyme (G3, G4)”. Moreover, the “P-smad3 expression (immunoblotting)” value with P-smad3 [4] is listed as “inhibited”. In the series on rats, the “appearance (hair coat, periocular region, ears, genitalia, limbs, tail)” value was “no changes”; the “biological functions (respiration, salivation, feces, emesis)” value was “no abnormal symptoms were found”; the “symptoms in relation to motion, walking, temper and convulsions” value was “no specific symptoms”. Besides, in the series on rats (setting [5]), the “autopsy with naked eyes, organs” value is on record as “did not cause any abnormal symptom or disorder in every organ” and the “microscopic observation of organs (liver, heart, lung, spleen)” value was “No pathological changes were observed”. The “autopsy with naked eyes, organs” value in the series with rats (autopsy 24 hours after administration, listed as Arazyme) is recorded as “no abnormal symptoms were observed”.

The values are drawn from US8367060B2, “Pharmaceutical composition containing arazyme for the prevention of liver dysfunction” (Insect Biotech Co., Ltd., priority 2006, dated 2013).
